Experimental data from patent US8569578B1, “Generating transgenic potatoes with novel resistance to potato cyst nematodes by silencing nematode parasitism genes of CLE -1 and CLE-4s” (The United States of America, as represented by the …, priority 2009, dated 2013).
Entries after “also recorded” stand apart in the source; their conditions may differ.

B1: Gr-CLE-4-B: G. rostochiensis CLE gene of class Gr-CLE-4, cDNA SEQ ID NO: 4 (nucleic acid, listed as Globodera rostochiensis)
DNA: ATCATAATTTCCAAAATCCCAATAAAAGCTTCCTCAATAAAGTAAATATGGCCACGAACACAATGCTTTGCCTGTTAATTTTGAGCGTTGTTCTCGCTCTCGCATTTGCTACGAATAAAAAGGGTGATGAAGAACCGGAGAACCATTCGACCGGCATTTTTGGAAAGGTCGGACGAGTTGTGACCGTGGCACTTGCGATGTCGTCTCGTCTGGGAGGGGCTGACGCAACCCGAGGAGGTGGAGCTGTATATGGAGGAAACTTGAAATCCAATCTATTGCCAAACAACAATTGGATGGCGCCACCTCCTCCAATGGCAATGAGAAGTGCCAAAGTCTATGATTCGAAACATTCTCCTGCTGAATATCTTAAAAAATTTGCTCAAGACTTTCGCCGAAAAACCGGCATGCACTCCCAGCGGCATCACGAAGAAACAACACTGGAACAGGAGAAGCGTGTAGCGGGAGCTGGTCCCGACCCAATACATCACCAAGATACAACACTGGAACAGGAGAAGCGTGCAGTCCCAGCTGGGCCCGACCCAAAACATCACGAAGAAACAACACTGGAACAGGAGAAGCGTGCAGTCCCAGCTGGGCCCGACCCAAAACATCACGAAGAAACAACACTGGAACAGGAGAAGCGTGCAGTCCCAGCTGGGCCCGACCCAAAACATCACGAAGAAACAACATTTGAACAGGAGAAGCGTGGTGCGCCAGCTGGGCCCGACCCAATACATCACTGATGCTCTTATTCACAATGCTAAAATATCTGTAGACTATAGATAAATTGCTAGCAACAGATAAATGCCTGATCATAATGCTATGGCTAAGGTATCCGTATTCCGAACTAGCAATATAAGCGCATGCGTAGCTCTATCCATTTAATTTCACAATCTAAAGATTAAAATCTGCAGATATCTAGCTGTAGCTGGGCTATCTGCGGATGGAAAAATCGGCATTCTTAATATAATTTTTAATTGCTTAATAAACTTCAATAAAA
B2: Gr-CLE-1: G. rostochiensis CLE gene, cDNA SEQ ID NO: 1, encoding a 204 amino acid secreted protein with four CLE motifs (nucleic acid, listed as Globodera rostochiensis)
DNA: TATTAATATTGACTAATTTTTTTTTACAAACATATTAATATTGACTAAAAAAATTGATTTTAATAACGACTATAGATATTACTTATGGAGCAACAAAAATCGTCATATTTCCCATCAAATTCAAATAAAACAATCTCTCCAATAAAGTAAATATGGCCAAGAACGCAATGCTTTGCCTGCTGATTTTGAGCGTTGTTCTTGCTCTCGCATTTGCTACAAATGAAAAGGATGATAAAGAAGCGGGGAACCTTTCGACCGGCATTTTTGGAAAGGCCGGAAGATTTGTGACCGTGGCACTTGCGATGTCGTCTCGTCTGGGAGGGGCTGGCGCATCCCAAGGAGGTGGAGCTGTACATGGAGAAAGCTTGAAATCCAATCAATTGCAAAACGCCTATCGGATGGCGCTTCCTCCTCCAATGCAAATAAAAAGTGCCGAAATTGACGGATGGAAACCGTCTCCTGATGAATATCTTAAAAAATTTGCTCAAGAATTTCGCCGAAACACCGGTATGAAACCCCAGTCGTATAATGAAGAGAAGCGTGTAACGCCGGGAGGGCCCGACCCACTACATAACCGTGAAAAAATTCTGGAAGAACAGAAGCGTGTAACGCCGGGAGGGCCTGACCCACTACATAACCGTGAAAAAACTCTGGAAGAACAGAAGCGTGTAACGCCGGGAGGGCCTGACCCACTACATAACCGTGAAAAAACTCTGGAAGAACAGAAGCGTGTAACGCCGGGAGTGCCCGACCGACAACATCGCTGAGGCAATACAAAAAGAGTGAAAGAAAATCGACGGATGTCTTTAGTAATTTCAATTCGTTCCTATCTTTCTCGTTCTGAAGACCAAATATCGATGATGTTAATGTTATGTTCGGAAAACAATTTCTGATATGCGCACACTTGGCA
B3: Gr-CLE-4-C: G. rostochiensis CLE gene of class Gr-CLE-4 with a single CLE motif, cDNA SEQ ID NO: 5 (nucleic acid, listed as Globodera rostochiensis)
DNA: ATCATAATTTCCAAAATCCCAATAAAAGCTTCCTCAATAAAGTAAATATGGCCACGAACACAATGCTTTGCCTGTTTGTTATAAGCGTTGTTCTCGCTCTCGCATTTGCTACGAATAAAAAGGGTGATGAAGAACCGGAGAACCATTCGACCGGCATTTTTGGAAAGGTCGGACGAGTTGTGACCGTGGCACTTGCGATGTCGTCTCGTCTGGGAGGGGCTGACGCAACCCGAGGAGGTGGAGCTGTATATGGAGGAAACTTGAAATCCAATCAATTGCCAAACAACAATTGGATGGCGCCACCTCCTCCAATGGCAATAAGAAGTGCCAAAGTCTATGATTCGAAACATTCTCCTGCTGAATATCTTAAAAAATTTGCTCAAGACTTTCGCCGAAAAACCGGCATGCACTCCCAGCGGCATCACGAAGAAACAACACTGGAACAGGAGAAGCGTGTAGCGGGAGCTGGTCCCGACCCAATACATCACTGATGCTCTTATTCACAATGCTAAAATATCTGTAGACTATAGATAAATTGCTAGCAACAG

Each molecule was assayed on Arabidopsis clv3-2 mutant plants (assay: complementation of clv3-2 mutant by Gr-CLE genes under CLV3 promoter). Conditions: gene under control of CLV3 promoter in clv3-2.
Assay type: in vivo
Description: Gr-CLE proteins can completely or partially replace CLV3 activity within meristems. For the complementation study, Gr-CLE genes were subcloned into pBU14 under the control of the CLV3 promoter (Brand et al. 2002. Plant Physiol. 129:565-575). To generate the PCLV3:Gr-CLE-1 construct, primer pair of CLE1-spF and CLE1-TGAxbaR was used. To generate PCLV3:Gr-CLE-4-B and PCLV3:Gr-CLE-4-C constructs, primer pair of CLE4B1-spF and 4B1-TGAxbaR was used. Each amplified PCR product was cloned into pBU14 at BamHI and XbaI sites. Arabidopsis clv3-2 mutant plants were transformed with A. tumefaciens GV3101 harboring each of the above constructs.
All transformants were selected on ½×MS medium containing 50 μg/mL of kanamycin (Sigma-Aldrich) (for the pMD1 vector) or 30 μg/mL of glufosinate ammonium (Fisher, Pittsburgh, Pa., U.S.A.) (for the pBU14 vector) and transgenic Arabidopsis plants were then cultivated at 24° C. for 16 h of light and 8 h of dark in a growth room. For measuring the root growth rate, transgenic plants expressing individual Gr-CLE genes or the empty vector were first selected on kanamycin containing medium for five days, then transferred to ½×MS plates and cultured vertically at 24° C. for 16 h of light and 8 h of dark in a growth chamber (Percival, Perry, Iowa, U.S.A.).
Gr-CLE-1, Gr-CLE-4-B, and Gr-CLE-4-C were the most representative Gr-CLE genes identified. To determine if these genes could replace CLV3 activity in the shoot and floral meristems, the full-length sequences of these three genes were cloned under the control of the CLV3 promoter and introduced into Arabidopsis clv3-2 mutant plants. clv mutants have enlarged shoot and floral meristems that lead to shoot fasciation and formation of extra floral organs including an increase in carpel number (Clark et al. 1993, 1995; Kayes and Clark 1998). For example, flowers of a clv3-2 mutant usually have six to seven carpels in the fourth whorl (Clark et al. 1995), whereas wild-type flowers have only two carpels in the fourth whole. Carpel number is a sensitive measurement for meristem size (Clark et al. 1993; Ni and Clark 2006). Multiple independent transgenic lines for each transgene were obtained and analyzed (Table 2).

| Molecule | average number of carpels in flowers and siliques | rescue of clv3-2 meristem defects |
| --- | --- | --- |
| B1 | two | nearly complete rescue |
| B2 | three to four | partial rescue |
| B3 | three to four | partial rescue |

These molecules were tested on potato hairy roots (assay: overexpression of Gr-CLE genes in potato hairy roots). Conditions: measured at 4, 6, 8 and 10 days after dissecting; compared with vector control.
Assay type: in vivo
Description: To examine root meristems, primary root tips were excised from peptide treated Arabidopsis seedlings or from transgenic potato hairy roots and immediately mounted in water onto a glass slide. Roots were examined under an Olympus BX-50 microscope equipped with Nomarski optics and images were captured using a QImaging Retiga EXi digital CCD camera (QImaging, Surrey, BC, Canada). The root apical meristem (RAM) regions of individual primary roots that covered the distance from the position around the quiescent center to the position where elongated root cells immediately follow cytoplasm-dense meristematic cells were measured microscopically. The collected data were analyzed using the MetaMorph imaging analysis software (Universal Imaging Corporation, Downingtown, Pa., U.S.A.)
A. rhizogenes strain 15834 was transformed with individual transgene constructs of interest and used for the generation of potato hairy roots as described previously (Wang et al. 2007. Mol. Plant Pathol. 8:423-436) with some modifications. Potato stem pieces from tissue cultures were incubated with the transformed A. rhizogenes cell suspension for 10 mins, then transferred onto the callus induction medium containing 1×MS salts (Sigma-Aldrich), 26.7 μM Glycine, 4 μM Nicotinic Acid, 2.4 μM Pyridoxine HCL (Sigma-Aldrich), 1.2 μM Thiamine HCL (Sigma-Aldrich), 0.5 μM Folic Acid, 0.2 μM d-biotin (Sigma-Aldrich), 0.01% Myo-inositol (Acros, Morris Plains, N.J., U.S.A.), 3% sucrose, 0.001% 6-BAP (Sigma-Aldrich), 0.002% NAA (Sigma-Aldrich), and 1% agar and cultivated for four days at 24° C. without light. The infected stem pieces were then cultured on the propagation medium containing 1×MS salts, 1.2 mM NaH2PO4, 0.01% Myo-inositol, 0.1% Thiamine HCl, 3% sucrose, 1% agar, 50 μg/mL of kanamycin, and 238 μg/mL of timentin (GlaxoSmithKline). Timentin was used to inhibit the growth of A. rhizogenes 15834 and kanamycin was added to select for transformed roots. Approximately 12-15 days after root emergence, 1 cm-long root tips were dissected and cultured on vertical plates containing the propagation medium with 119 μg/mL of timentin and the root growth rate was measured at different time points.

| Molecule | length of primary roots of transgenic potato hairy root lines |
| --- | --- |
| B1 | short root phenotype |
| B2 | short root phenotype; also recorded: much shorter |
| B3 | short root phenotype |
